In US20180099015A1 (ADCURE BIOTECHNOLOGIES, published 2018):

Legend:
[1] = target: blood coagulation factor X (UniProt P00742); assay: FX binding to immobilised virus (2900 RU); method not given, SPR (Biacore) named for FIG. 14B
[2] = target: T1, sCAR (UniProt P78310 20-237); assay: not stated; row marked with an asterisk that has no footnote
T1 construct: also called soluble coxsackievirus and Ad receptor (CAR)
T1 sequence: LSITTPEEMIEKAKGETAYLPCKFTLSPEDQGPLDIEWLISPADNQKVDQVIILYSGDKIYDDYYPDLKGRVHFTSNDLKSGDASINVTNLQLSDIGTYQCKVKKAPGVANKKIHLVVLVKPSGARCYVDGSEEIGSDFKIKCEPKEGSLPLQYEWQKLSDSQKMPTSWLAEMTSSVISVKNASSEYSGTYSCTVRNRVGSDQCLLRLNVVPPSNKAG

blood coagulation factor X, sequence (P00742 41-488 limits assumed): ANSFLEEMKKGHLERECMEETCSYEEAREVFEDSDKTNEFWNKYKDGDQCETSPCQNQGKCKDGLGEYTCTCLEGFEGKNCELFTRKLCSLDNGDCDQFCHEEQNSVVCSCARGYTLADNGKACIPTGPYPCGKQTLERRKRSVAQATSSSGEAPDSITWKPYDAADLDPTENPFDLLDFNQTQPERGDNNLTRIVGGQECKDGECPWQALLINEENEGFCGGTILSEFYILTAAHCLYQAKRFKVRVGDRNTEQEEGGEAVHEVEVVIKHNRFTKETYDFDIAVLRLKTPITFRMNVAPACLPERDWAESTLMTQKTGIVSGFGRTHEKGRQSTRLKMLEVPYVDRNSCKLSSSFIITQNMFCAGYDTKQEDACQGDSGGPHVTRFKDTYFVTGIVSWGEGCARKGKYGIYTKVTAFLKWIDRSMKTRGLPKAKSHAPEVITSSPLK

Which Kd [1] does the source give for “human adenovirus serotype 4 (Ad4), virus particle (from UniProt P49810)” here?
The Kd was 2480 nM.

B1: Ad12 partner of the row Ad12-sCAR* (other)
chain: SNTPYDPLTLWTTPDPPPNCSLIQELDAKLTLCLTKNGSIVNGIVSLVGVKGNLLNIQSTTTTVGVHLVFDEQGRLITSTPTALVPQASWGYRQGQSVSTNTVTNGLGFMPNVSAYPRPNASEAKSQMVSLTYLQGDTSKPITMKVAFNGITSLNGYSLTFMWSGLSNYINQPFSTPSCSFSYITQE
B1 was tested. Which Kd [2] did it give?
The Kd was 15 nM.

B2: Ad5 partner of the row Ad5-sCAR* (other)
chain: GAITVGNKNNDKLTLWTTPAPSPNCRLNAEKDAKLTLVLTKCGSQILATVSVLAVKGSLAPISGTVQSAHLIIRFDENGVLLNNSFLDPEYWNFRNGDLTEGTAYTNAVGFMPNLSAYPKSHGKTAKSNIVSQVYLNGDKTKPVTLTITLNGTQETGDTTPSAYSMSFSWDWSGHNYINEIFATSSYTFSYIAQE
For B2, which Kd [2] is on record?
The Kd was 7.9 nM.
